Measurements published in PMC5921417, “The β-glucosidase secreted by Talaromyces amestolkiae under carbon starvation: a versatile catalyst for biofuel production from plant and algal biomass” (Biotechnology for Biofuels, 2018).

How the values were obtained:
[1] = test system: T1, O=[N+]([O-])c1ccc(O[C@@H]2O[C@H](CO)[C@@H](O)[C@H](O)[C@H]2O)cc1; assay: purified protein; type: biochemical, Talaromyces amestolkiae; details: sodium acetate 100 mM pH 4.0, 70 °C (standard reaction), 0.1% BSA
T1 construct: native enzyme secreted by T. amestolkiae, purified from culture (Mandels medium, glucose); signal peptide removed; glycosylated; gene codes for 857 aa; non-covalent dimer about 222 kDa; mature N-terminus YSPPAYP deduced from the cloning primer

[2] = test system: O=[N+]([O-])c1ccccc1O[C@@H]1O[C@H](CO)[C@@H](O)[C@H](O)[C@H]1O; assay: purified protein; details: sodium acetate 100 mM pH 4.0, 70 °C (standard reaction), 0.1% BSA
[3] = target: β-glucosidase BGL-3 from Talaromyces amestolkiae (native enzyme) (Talaromyces amestolkiae); assay: SEC; Superose 12 column; native purified BGL-3; mass around 222 kDa against 107.0 kDa for the monomer by MALDI-TOF

Substance	Km [1]	Vmax [1]	kcat [1]	kcat/Km [1]	Km [2]	Vmax [2]	kcat [2]	kcat/Km [2]	stoichiometry N [3]
BGL-3 (β-glucosidase g377) (Talaromyces amestolkiae)	140 ± 100 µM	381 µmol/min/mg	1360 s⁻¹	9.71e+06 M⁻¹ s⁻¹	140 ± 100 µM	142 µmol/min/mg	507 s⁻¹	3.43e+06 M⁻¹ s⁻¹	
β-glucosidase BGL-3 from Talaromyces amestolkiae (native enzyme)									2
